Reference: publication PMC5560055 (Journal of molecular biology, 2014)

Tests used:
[1] = biological target: zip from GCN4 (T25-zip and T18-zip, positive control of the BACTH kit); experiment: two-hybrid
[2] = biological target: T1, N-terminally His-tagged PflB (E. coli, UniProt P09373 2-760); experiment: cross-linking
T1 sequence: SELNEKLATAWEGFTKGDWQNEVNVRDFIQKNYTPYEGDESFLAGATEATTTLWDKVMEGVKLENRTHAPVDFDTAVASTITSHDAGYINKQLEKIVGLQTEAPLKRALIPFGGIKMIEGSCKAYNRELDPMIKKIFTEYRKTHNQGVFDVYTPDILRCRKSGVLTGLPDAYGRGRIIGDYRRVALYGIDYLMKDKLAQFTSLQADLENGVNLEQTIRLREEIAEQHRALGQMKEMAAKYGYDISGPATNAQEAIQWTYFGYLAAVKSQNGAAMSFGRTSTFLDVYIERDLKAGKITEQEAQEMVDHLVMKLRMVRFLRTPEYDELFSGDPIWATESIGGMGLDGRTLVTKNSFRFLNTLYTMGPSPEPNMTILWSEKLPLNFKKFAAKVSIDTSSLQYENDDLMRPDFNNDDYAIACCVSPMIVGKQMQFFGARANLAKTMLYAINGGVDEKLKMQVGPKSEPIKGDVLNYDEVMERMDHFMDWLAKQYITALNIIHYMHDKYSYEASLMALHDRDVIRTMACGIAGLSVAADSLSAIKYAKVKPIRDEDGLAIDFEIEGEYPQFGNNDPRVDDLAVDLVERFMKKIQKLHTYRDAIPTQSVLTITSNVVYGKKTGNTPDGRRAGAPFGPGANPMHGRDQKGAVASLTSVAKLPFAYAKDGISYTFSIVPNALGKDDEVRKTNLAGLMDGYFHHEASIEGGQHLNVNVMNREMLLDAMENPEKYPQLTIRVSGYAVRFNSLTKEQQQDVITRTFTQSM

[3] = biological target: T1, N-terminally His-tagged PflB; experiment: pull-down

Molecule: zip from GCN4 (T25-zip and T18-zip, positive control of the BACTH kit) (domain or fragment)
- β-galactosidase activity [1]: 715 units

B1: FocA, purified preparation used for BS2G cross-linking (natural protein, E. coli)
chain: MKADNPFDLLLPAAMAKVAEEAGVYKATKHPLKTFYLAITAGVFISIAFVFYITATTGTGTMPFGMAKLVGGICFSLGLILCVVCGADLFTSTVLIVVAKASGRITWGQLAKNWLNVYFGNLVGALLFVLLMWLSGEYMTANGQWGLNVLQTADHKVHHTFIEAVCLGILANLMVCLAVWMSYSGRSLMDKAFIMVLPVAMFVASGFEHSIANMFMIPMGIVIRDFASPEFWTAVGSAPENFSHLTVMNFITDNLIPVTIGNIIGGGLLVGLTYWVIYLRENDHH
- binding result [2]: binds

B2: N-terminally Strep-tagged FocA (formate channel A) (natural protein, E. coli, UniProt P0AC23 1-285, looked up)
chain: MKADNPFDLLLPAAMAKVAEEAGVYKATKHPLKTFYLAITAGVFISIAFVFYITATTGTGTMPFGMAKLVGGICFSLGLILCVVCGADLFTSTVLIVVAKASGRITWGQLAKNWLNVYFGNLVGALLFVLLMWLSGEYMTANGQWGLNVLQTADHKVHHTFIEAVCLGILANLMVCLAVWMSYSGRSLMDKAFIMVLPVAMFVASGFEHSIANMFMIPMGIVIRDFASPEFWTAVGSAPENFSHLTVMNFITDNLIPVTIGNIIGGGLLVGLTYWVIYLRENDHH
- binding result [3]: binds
